Three molecules from patent US20220241335A1 (H LEE MOFFITT CANCER CENTER AND RESEARCH INST5ITUTE, published 2022) can be followed below.

Where only a bound is given, the exact number is not on record here.

The target of experiment [1] is Notch1 (as used for the SPR of Example 1). In words: SPR. A general note: SPR reads the build-up and loss of mass on a sensor chip optically.
The target of experiment [2] is T1, hNotch 1 (EGF6-EGF13) (human, UniProt P46531 218-526, biotinylated (site not stated)).
T1 construct: domain: EGF6-EGF13; Immobilised on the SPR chip through biotin; also called biotinylated Notch1
Briefly: SPR, biotinylated Notch on chip, 1:1 equilibrium binding model. As for the experimental part: (§1) 100. Next, the binding affinity of each individual variant was determined by surface plasmon resonance. Biotinylated Notch1, Notch2, or Notch3 proteins containing the domains indicated above were immobilized on a surface plasmon resonance sensor chip. Increasing concentrations of WT DLL4 or DLL4.v3 were then flowed over the chip and dissociation constants were determined by fitting the data to a 1:1 equilibrium binding model. As shown in FIG. 4 and Table 3, the binding affinity of DLL4.v3 was at least 3 orders of magnitude stronger than wildtype.

The target in experiment [3] is T2, hNotch 2 (EGF6-EGF13) (human, UniProt Q04721 221-530, biotinylated (site not stated)).
T2 construct: domain: EGF6-EGF13; Immobilised on the SPR chip through biotin; also called biotinylated Notch2
T2 sequence (looked up): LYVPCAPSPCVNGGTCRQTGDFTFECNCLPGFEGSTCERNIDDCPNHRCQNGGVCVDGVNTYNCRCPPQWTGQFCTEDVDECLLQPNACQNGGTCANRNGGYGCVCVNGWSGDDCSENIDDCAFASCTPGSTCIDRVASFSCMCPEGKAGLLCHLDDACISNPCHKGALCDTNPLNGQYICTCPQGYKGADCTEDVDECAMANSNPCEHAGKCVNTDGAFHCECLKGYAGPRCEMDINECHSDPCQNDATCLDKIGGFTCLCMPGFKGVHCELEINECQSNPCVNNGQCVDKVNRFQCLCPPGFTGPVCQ
Described as above. The protocol:
as §1

Experiment [4] has as its target T3, hNotch 3 (EGF5-EGF12) (human, UniProt Q9UM47 197-505, biotinylated (site not stated)).
T3 construct: domain: EGF5-EGF12; Immobilised on the SPR chip through biotin; also called biotinylated Notch3
T3 sequence (looked up): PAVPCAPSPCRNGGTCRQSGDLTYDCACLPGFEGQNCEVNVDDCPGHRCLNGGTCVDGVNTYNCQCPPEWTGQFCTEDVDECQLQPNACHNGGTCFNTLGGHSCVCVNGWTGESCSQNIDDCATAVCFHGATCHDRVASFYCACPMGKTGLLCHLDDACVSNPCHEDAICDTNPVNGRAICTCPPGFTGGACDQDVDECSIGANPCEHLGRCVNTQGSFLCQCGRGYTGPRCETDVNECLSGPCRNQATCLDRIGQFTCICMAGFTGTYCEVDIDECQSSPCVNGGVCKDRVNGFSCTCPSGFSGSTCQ
The description is as above. As for the experimental part:
as §1

In experiment [5] the target is T1, hNotch 1 (EGF6-EGF13). In words: SPR. The protocol:
as §1

Experiment [6] concerns the target T2, hNotch 2 (EGF6-EGF13). In words: SPR. As for the experimental part:
as §1

Experiment [7] concerns the target T3, hNotch 3 (EGF5-EGF12). In words: SPR. As for the experimental part: as §1

One may read the Kd as a measure of binding affinity in units of concentration. A lower Kd goes with higher affinity. In turn, “wild type rat DLL4 (from UniProt D3ZHH1 27-401) (ligand)” yielded a Kd in experiment [1] of 12.7 µM.

B1: WT hDLL4 (N-EGF3) (ligand)
chain: SGVFQLQLQEFINERGVLASGRPCEPGCRTFFRVCLKHFQAVVSPGPCTFGTVSTPVLGTNSFAVRDDSSGGGRNPLQLPFNFTWPGTFSLIIEAWHAPGDDLRPEALPPDALISKIAIQGSLAVGQNWLLDEQTSTLTRLRYSYRVICSDNYYGDNCSRLCKKRNDHFGHYVCQPDGNLSCLPGWTGEYCQQPICLSGCHEQNGYCSKPAECLCRPGWQGRLCNECIPHNGCRHGTCSTPWQCTCDEGWGGLFCDQDLNYCTHHSPCKNGATCSNSGQRSYTCTCRPGYTGVDCE
notes: also called WT DLL4; wildtype
In the case of B1, the Kd in the experiment with hNotch 1 (EGF6-EGF13) [2] turned out to be 17.9 µM; with hNotch 2 (EGF6-EGF13) [3] it was 35.7 µM; with hNotch 3 (EGF5-EGF12) [4] it was 22 µM.

B2: 3a.5_E12 (N-EGF3) (ligand)
chain: SSVFQLQLQEFINERGVLASGRPCEPGCRTFFRVCLKHFQAVVSPGPCTFGTVSTPVLGTNSFAVRDDSSGGGRNPLQLPLNFTWPGTFSLIIEAWHAPGDDLRPEALPPDALISKFAIQGSLAVGQNWLLDEQTSTLTRLRYSYRVICSDNYYGDNCSRLCKKRNDYFGHYVCQPDGNPSCLPGWTGEYCQQPICLSGCHEQNGYCSKPAECLCRPGWQGRLCNECIPHPGCRHGTCSTPWQCLCDEGWGGLYCDQDLNYCTHHSPCKNGATCRNSGPRSYTCTCRPGYTGVDCE
notes: also called DLL4.v3; N3a.5_E12
On to B2, for which the “binding affinity relative to wildtype” value is about 1000 fold in the experiment with hNotch 1 (EGF6-EGF13) [5], at least 1000 fold in the experiment with hNotch 2 (EGF6-EGF13) [6] and about 1000 fold in the experiment with hNotch 3 (EGF5-EGF12) [7]. Moreover, the Kd with hNotch 1 (EGF6-EGF13) [2] worked out at 0.02 µM; with hNotch 2 (EGF6-EGF13) [3], 0.0314 µM; with hNotch 3 (EGF5-EGF12) [4] it was 0.0273 µM.
